How the values were obtained:
Experiment in all cases: two-hybrid; LexA-Cdc1 bait (pBTM116 or pBTM116BN) with Gal4-Pol3 prey and co-expressed c-myc-tagged Cdc27 (pAA-Cdc27) in S. cerevisiae CTY10-5d; ONPG liquid culture beta-galactosidase assay, mean of triplicates, as percent of wild-type Cdc1
Settings in all cases: partners not purified
Cdc1-J10 = target: T1, Cdc1-J10 (Schizosaccharomyces pombe, UniProt P87324 1-462, Tyr-ArgGlyThrProTyr-Met)
T1 construct: Cdc1, S. pombe, with a pentapeptide inserted after residue 77; also called J11; E6; source: yeast two-hybrid fusion, in S. cerevisiae CTY10-5d
T1 sequence (looked up): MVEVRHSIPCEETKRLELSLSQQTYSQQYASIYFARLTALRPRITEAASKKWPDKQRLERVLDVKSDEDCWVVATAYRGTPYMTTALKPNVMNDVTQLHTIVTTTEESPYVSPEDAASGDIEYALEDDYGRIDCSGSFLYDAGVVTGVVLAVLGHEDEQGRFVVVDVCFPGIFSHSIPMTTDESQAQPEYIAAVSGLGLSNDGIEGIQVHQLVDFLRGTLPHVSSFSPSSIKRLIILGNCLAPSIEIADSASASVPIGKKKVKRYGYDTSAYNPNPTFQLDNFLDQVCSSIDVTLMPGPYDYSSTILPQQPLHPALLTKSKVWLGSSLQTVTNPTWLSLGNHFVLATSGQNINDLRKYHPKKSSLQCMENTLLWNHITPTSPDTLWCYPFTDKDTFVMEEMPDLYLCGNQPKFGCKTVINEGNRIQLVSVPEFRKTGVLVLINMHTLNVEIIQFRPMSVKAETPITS

Cdc1-J8 = target: T2, Cdc1-J8 (Schizosaccharomyces pombe, UniProt P87324 1-462, Lys-GlyValProLeuLys-Pro)
T2 construct: Cdc1, S. pombe, with a pentapeptide inserted after residue 83; also called J19; source: yeast two-hybrid fusion, in S. cerevisiae CTY10-5d
T2 sequence (looked up): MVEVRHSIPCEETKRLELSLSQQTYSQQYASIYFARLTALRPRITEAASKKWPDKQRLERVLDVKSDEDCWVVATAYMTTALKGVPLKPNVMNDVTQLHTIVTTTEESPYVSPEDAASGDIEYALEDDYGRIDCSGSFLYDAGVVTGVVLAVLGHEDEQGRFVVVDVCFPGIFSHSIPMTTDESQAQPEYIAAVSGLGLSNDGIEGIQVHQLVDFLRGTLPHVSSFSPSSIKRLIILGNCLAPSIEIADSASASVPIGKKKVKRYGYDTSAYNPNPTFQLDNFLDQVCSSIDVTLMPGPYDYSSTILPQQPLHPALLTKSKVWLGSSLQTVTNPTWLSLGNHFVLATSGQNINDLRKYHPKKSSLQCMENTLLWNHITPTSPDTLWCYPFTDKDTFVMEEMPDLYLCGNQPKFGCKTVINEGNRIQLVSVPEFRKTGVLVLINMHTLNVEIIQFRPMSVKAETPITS

Cdc1-A4 = target: T3, Cdc1-A4 (Schizosaccharomyces pombe, UniProt P87324 1-462, Pro303Ala)
T3 construct: Cdc1, S. pombe, point mutant; source: yeast two-hybrid fusion, in S. cerevisiae CTY10-5d
T3 sequence (looked up): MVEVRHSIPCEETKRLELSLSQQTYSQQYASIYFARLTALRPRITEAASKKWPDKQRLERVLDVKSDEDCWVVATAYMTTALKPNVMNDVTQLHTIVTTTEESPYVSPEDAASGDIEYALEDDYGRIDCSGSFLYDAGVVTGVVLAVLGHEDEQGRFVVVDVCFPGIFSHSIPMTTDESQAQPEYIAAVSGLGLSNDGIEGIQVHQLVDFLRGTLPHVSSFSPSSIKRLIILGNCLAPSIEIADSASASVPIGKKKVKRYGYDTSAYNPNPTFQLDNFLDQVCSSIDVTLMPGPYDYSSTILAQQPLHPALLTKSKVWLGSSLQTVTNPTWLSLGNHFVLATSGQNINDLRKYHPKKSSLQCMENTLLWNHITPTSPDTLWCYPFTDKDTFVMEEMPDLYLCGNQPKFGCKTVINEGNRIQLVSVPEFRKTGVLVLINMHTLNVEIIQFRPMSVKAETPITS

Cdc1-A6 = target: T4, Cdc1-A6 (Schizosaccharomyces pombe, UniProt P87324 1-462, Pro329Ala)
T4 construct: Cdc1, S. pombe, point mutant; source: yeast two-hybrid fusion, in S. cerevisiae CTY10-5d
T4 sequence (looked up): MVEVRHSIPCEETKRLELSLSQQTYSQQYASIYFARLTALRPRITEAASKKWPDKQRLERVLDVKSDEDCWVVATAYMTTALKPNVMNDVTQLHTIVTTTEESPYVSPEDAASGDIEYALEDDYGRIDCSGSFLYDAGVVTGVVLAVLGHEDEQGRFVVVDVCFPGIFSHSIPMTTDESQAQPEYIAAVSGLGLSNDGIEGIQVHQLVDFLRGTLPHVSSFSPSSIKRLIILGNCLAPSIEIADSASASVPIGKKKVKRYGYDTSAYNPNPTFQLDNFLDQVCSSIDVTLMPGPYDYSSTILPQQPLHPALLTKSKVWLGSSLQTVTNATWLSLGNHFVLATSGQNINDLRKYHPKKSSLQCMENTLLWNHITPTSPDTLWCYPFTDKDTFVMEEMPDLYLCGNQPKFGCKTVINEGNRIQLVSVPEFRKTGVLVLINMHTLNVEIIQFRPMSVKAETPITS

Measured: two-hybrid beta-galactosidase activity, % of wild-type Cdc1

B1: Pol3 (fission yeast DNA polymerase delta catalytic subunit) (natural protein, Schizosaccharomyces pombe, UniProt P30316 1-1086, looked up)
chain: MTDRSSNEGVVLNKENYPFPRRNGSIHGEITDVKRRRLSERNGYGDKKGSSSKEKTSSFEDELAEYASQLDQDEIKSSKDQQWQRPALPAINPEKDDIYFQQIDSEEFTEGSVPSIRLFGVTDNGNSILVHVVGFLPYFYVKAPVGFRPEMLERFTQDLDATCNGGVIDHCIIEMKENLYGFQGNEKSPFIKIFTTNPRILSRARNVFERGEFNFEELFPVGVGVTTFESNTQYLLRFMIDCDVVGMNWIHLPASKYQFRYQNRVSNCQIEAWINYKDLISLPAEGQWSKMAPLRIMSFDIECAGRKGVFPDPSIDPVIQIASIVTQYGDSTPFVRNVFCVDTCSQIVGTQVYEFQNQAEMLSSWSKFVRDVDPDVLIGYNICNFDIPYLLDRAKSLRIHNFPLLGRIHNFFSVAKETTFSSKAYGTRESKTTSIPGRLQLDMLQVMQRDFKLRSYSLNAVCSQFLGEQKEDVHYSIITDLQNGTADSRRRLAIYCLKDAYLPQRLMDKLMCFVNYTEMARVTGVPFNFLLARGQQIKVISQLFRKALQHDLVVPNIRVNGTDEQYEGATVIEPIKGYYDTPIATLDFSSLYPSIMQAHNLCYTTLLDSNTAELLKLKQDVDYSVTPNGDYFVKPHVRKGLLPIILADLLNARKKAKADLKKETDPFKKAVLDGRQLALKVSANSVYGFTGATNGRLPCLAISSSVTSYGRQMIEKTKDVVEKRYRIENGYSHDAVVIYGDTDSVMVKFGVKTLPEAMKLGEEAANYVSDQFPNPIKLEFEKVYFPYLLISKKRYAGLFWTRTDTYDKMDSKGIETVRRDNCPLVSYVIDTALRKMLIDQDVEGAQLFTKKVISDLLQNKIDMSQLVITKALSKTDYAAKMAHVELAERMRKRDAGSAPAIGDRVAYVIIKGAQGDQFYMRSEDPIYVLENNIPIDAKYYLENQLSKPLLRIFEPILGEKASSLLHGDHTRTISMAAPSVGGIMKFAVKVETCLGCKAPIKKGKTALCENCLNRSAELYQRQVAQVNDLEVRFARLWTQCQRCQGSMHQDVICTSRDCPIFYMRIAEHKKLQQSVDLLKRFDEMSW
notes: DNA polymerase delta catalytic subunit Pol3, S. pombe; prey plasmid named pACT-Pol3 in the results and pGAD2F-Pol3 in the methods; also called Gal4-Pol3; pACT-Pol3; source: yeast two-hybrid fusion, in S. cerevisiae CTY10-5d
< 1%: all assays above

— paper PMC2734569, “Functional mapping of the fission yeast DNA polymerase δ B-subunit Cdc1 by site-directed and random pentapeptide insertion mutagenesis” (BMC Molecular Biology, 2009)
